The source of these data is PMC2771873 (2009).

The target in this experiment is T1, RyRP12 peptide (ryanodine receptor 1) RyRP12 (UniProt P21817, also: TAMRA label, position not given here).
T1 chain: KKAVWHKLLSKQ
The experiment in a line: fluorescence anisotropy. A general note: Polarisation of emitted light reports the rotation of a fluorescent probe.

By Kd is commonly meant the free concentration of one partner at which half of the binding sites on the other are occupied at equilibrium, for simple one-to-one binding. Read a high Kd as lower affinity.

Ends that are not written are not given here.

B1: S100A1 (protein)
chain: MGSELETAMETLINVFHAHSGKEGDKYKLSKKELKDLLQTELSSFLDVQKDADAVDKIMKELDENGDGEVDFQEFVVLVAALTVACNNFFWENS
B1 displayed a dissociation constant (Kd) of 139 nM.
